{
  "source": "patent US20110172153A1",
  "about": "(GENERAL HOSPITAL, published 2011)",
  "binders": {"B1": {"name": "[Aib^1,3,Gln^10,Har^11,Ala^12,Trp^14]rPTH(1-14)NH2 (peptide)", "peptide": "[Aib]V[Aib]EIQLMHQ[hArg]AKW-NH2", "modifications": "N-terminus assumed", "SMILES": "CC[C@H](C)[C@H](NC(=O)[C@H](CCC(=O)O)NC(=O)C(C)(C)NC(=O)[C@@H](NC(=O)C(C)(C)N)C(C)C)C(=O)N[C@@H](CCC(N)=O)C(=O)N[C@@H](CC(C)C)C(=O)N[C@@H](CCSC)C(=O)N[C@@H](Cc1c[nH]cn1)C(=O)N[C@@H](CCC(N)=O)C(=O)N[C@@H](CCCCNC(=N)N)C(=O)N[C@@H](C)C(=O)N[C@@H](CCCCN)C(=O)N[C@@H](Cc1c[nH]c2ccccc12)C(N)=O"}, "B2": {"name": "A18,22,L25,K26-PTHrP(1-28)NH (peptide)", "peptide": "AVSEHQLLHDKGKSIQDARRRAFLLKLI-NH2", "modifications": "not fully specified", "notes": "also called [Ala^18,22,Leu^25,Lys^26]-PTHrP(1-28); AALK-PTHrP(1-28)"}, "B3": {"name": "^125I-[Nle^8,21,Tyr^34]rPTH(1-34)NH2 (peptide)", "peptide": "AVSEIQLXHNLGKHLASVERXQWLRKKLQDVHNY", "modifications": "125I label (oxidative chloramine-T procedure); Nle at 8 and 21; C-terminal amide", "notes": "Radioligand; tracer of the R0 assay"}},
  "key": {"[1]": {"molecular_target": "T1, rat parathyroid hormone receptor (PTHR) (rat, UniProt P25961 27-591)", "T1 construct": "Endogenous in ROS17/2.8 cells (membranes or intact cells); also called rat PTHR; rat PIR", "T1 sequence": "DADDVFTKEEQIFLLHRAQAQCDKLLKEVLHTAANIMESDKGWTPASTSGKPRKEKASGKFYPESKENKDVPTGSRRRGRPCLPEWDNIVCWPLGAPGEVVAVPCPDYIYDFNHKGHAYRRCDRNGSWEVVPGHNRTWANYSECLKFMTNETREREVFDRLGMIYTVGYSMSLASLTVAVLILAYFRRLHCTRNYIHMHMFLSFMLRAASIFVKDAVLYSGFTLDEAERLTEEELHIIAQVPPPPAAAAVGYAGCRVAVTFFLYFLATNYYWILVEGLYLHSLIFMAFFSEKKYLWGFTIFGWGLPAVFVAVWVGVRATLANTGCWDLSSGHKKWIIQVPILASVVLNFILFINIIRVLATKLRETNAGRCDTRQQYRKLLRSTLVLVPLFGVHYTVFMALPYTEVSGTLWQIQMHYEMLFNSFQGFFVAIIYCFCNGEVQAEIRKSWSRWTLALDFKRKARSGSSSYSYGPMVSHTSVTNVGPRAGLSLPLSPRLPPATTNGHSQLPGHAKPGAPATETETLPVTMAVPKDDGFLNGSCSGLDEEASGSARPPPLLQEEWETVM", "assay": "near-equilibrium radioligand binding, ROS17/2.8 membranes"}, "PTHR-CFPIC3/YFPCT": {"molecular_target": "PTHR-CFPIC3/YFPCT (human)", "assay": "cell-based or functional assay"}, "[2]": {"molecular_target": "T2, human parathyroid hormone receptor (PTHR) (human, UniProt Q03431 27-593)", "T2 construct": "Assayed in membranes of HKRK-B7 cells or of transiently transfected COS-7 cells, or on intact HKRK-B7/HKRK-B64/COS-7 cells; RG = co-transfected with negative-dominant Galpha-s; R0 = receptor alone plus GTPgammaS; also called hPTHR; human PTH receptor", "T2 sequence": "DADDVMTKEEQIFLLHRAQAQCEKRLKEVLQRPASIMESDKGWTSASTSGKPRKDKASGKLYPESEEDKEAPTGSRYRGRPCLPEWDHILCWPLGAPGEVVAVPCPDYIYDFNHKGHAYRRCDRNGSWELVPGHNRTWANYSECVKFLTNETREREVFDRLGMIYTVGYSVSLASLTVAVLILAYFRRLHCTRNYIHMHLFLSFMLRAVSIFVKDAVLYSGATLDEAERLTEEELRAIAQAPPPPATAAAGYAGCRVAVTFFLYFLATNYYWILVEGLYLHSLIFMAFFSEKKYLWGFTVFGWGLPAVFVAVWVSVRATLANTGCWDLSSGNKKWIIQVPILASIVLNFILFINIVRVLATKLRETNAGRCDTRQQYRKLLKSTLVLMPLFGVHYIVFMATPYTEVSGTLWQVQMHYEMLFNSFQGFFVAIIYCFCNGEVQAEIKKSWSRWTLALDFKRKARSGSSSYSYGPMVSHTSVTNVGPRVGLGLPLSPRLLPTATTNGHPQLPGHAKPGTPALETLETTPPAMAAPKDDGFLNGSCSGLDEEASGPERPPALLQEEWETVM", "assay": "ratio of R0 IC50 to RG IC50, hPTHR"}, "[3]": {"molecular_target": "T2, human parathyroid hormone receptor …", "assay": "competition radioligand binding, hPTHR RG conformation", "experimental": "(§1) Binding Studies. Binding studies were performed using cell membranes as described (Dean et al., Mol Endocrinol 20(4):931-43 (2006)). […] Reactions contained a total membrane protein concentration of 20 to 100 μg/mL, and a total radioactivity concentration of approximately 150,000 cpm/ml. Unlabeled peptide ligands and/or GTPγS (Sigma-Aldrich Inc. St. Louis, Mo.) were added to the reactions as indicated. At the end of the reaction, bound and free radioligand were separated by vacuum filtration using a 96-well vacuum filter plate and vacuum filter apparatus (Multi-Screen system with Durapore HV, […] filters; Millipore Corp., Milford, Mass.); the air-dried filters were then detached from the plate and counted for gamma radioactivity using a gamma counter.\n(§2) To assess the capacities of various unlabeled peptide ligands to bind to the G protein-uncoupled and G protein-coupled PTHR conformations (R⁰ and RG, respectively), membranes were prepared from transiently transfected COS-7 cells and the following assay conditions."}, "[4]": {"molecular_target": "T2, human parathyroid hormone receptor …", "assay": "competition radioligand binding, human PIR R0", "experimental": "as §1, §2"}, "[5]": {"molecular_target": "T2, human parathyroid hormone receptor …", "assay": "cell-based or functional assay"}, "[6]": {"molecular_target": "T2, human parathyroid hormone receptor …", "assay": "competition radioligand binding, human PIR RG", "experimental": "as §1, §2"}, "[7]": {"molecular_target": "T1, rat parathyroid hormone receptor (PTHR)", "assay": "competition radioligand binding, rat PIR R0"}, "[8]": {"molecular_target": "T1, rat parathyroid hormone receptor (PTHR)", "assay": "competition radioligand binding, rat PIR RG"}, "[9]": {"molecular_target": "T2, human parathyroid hormone receptor …", "assay": "competition radioligand binding, hPTHR R0 conformation", "experimental": "as §1, §2"}, "[10]": {"molecular_target": "T2, human parathyroid hormone receptor …", "assay": "competition radioligand binding, human PTH1 receptor RG", "experimental": "as §1, §2"}, "[11]": {"molecular_target": "T2, human parathyroid hormone receptor …", "assay": "ratio of R0 IC50 to RG IC50, human PTH1 receptor"}, "[12]": {"molecular_target": "T2, human parathyroid hormone receptor …", "assay": "competition radioligand binding, human PTH1 receptor R0", "experimental": "as §1, §2"}},
  "note": "Square brackets hold non-standard residues; d marks the D form. Ends that are not written are not given here. hArg = N=C(N)NCCCC[C@H](N)C(=O)O; Nle = CCCC[C@H](N)C(=O)O; Aib = CC(C)(N)C(=O)O",
  "data": [
    {"binder": "[Aib]V[Aib]EIQL[Nle]HQ[hArg]AKWY-NH2 (also: 125I label, site not given here, Radioligand; tracer of the RG assay)", "note": "[^125I-[Aib^1,3,M]PTH(1-15)NH2]", "values": [
      {"measurement": "binding result", "setting": "[1]", "result": "binds"}
    ]},
    {"binder": "B1", "values": [
      {"measurement": "t1/2 of the FRET response", "setting": "PTHR-CFPIC3/YFPCT", "result": 0.5, "unit": "s"}
    ]},
    {"binder": "B2", "values": [
      {"measurement": "R0/RG selectivity", "setting": "[2]", "result": 6970},
      {"measurement": "IC50", "setting": "[3]", "result": 40, "unit": "pM"},
      {"measurement": "IC50", "setting": "[4]", "result": 310000, "unit": "pM"},
      {"measurement": "cAMP in HKRK-B7 cells, EC50", "setting": "[5]", "result": 520, "unit": "pM"},
      {"measurement": "cAMP in HKRK-B7 cells, Max", "setting": "[5]", "result": 56.4, "unit": "pm/well"},
      {"measurement": "IC50", "setting": "[6]", "result": 40, "unit": "pM"},
      {"measurement": "IC50", "setting": "[7]", "result": 34900, "unit": "pM"},
      {"measurement": "IC50", "setting": "[8]", "result": 160, "unit": "pM"},
      {"measurement": "IC50", "setting": "[9]", "result": 310000, "unit": "pM"}
    ]},
    {"binder": "AVSEHQLLHDKGKSIQDERRRAFLHHKIAEI-NH2 (Name as printed (K27))", "note": "[E18,A22,K27-PTHrP(1-31)NH]", "values": [
      {"measurement": "IC50", "setting": "[7]", "result": 54800, "unit": "pM"},
      {"measurement": "IC50", "setting": "[8]", "result": 230, "unit": "pM"}
    ]},
    {"binder": "AVSEHQLLHDKGKSIQDERRRAFLLKLIAE-NH2 (also called EALK-PTHrP(1-30))", "note": "[E18,A22,L25,K26-PTHrP(1-30)NH]", "values": [
      {"measurement": "R0/RG selectivity", "setting": "[2]", "result": 11200},
      {"measurement": "IC50", "setting": "[3]", "result": 80, "unit": "pM"},
      {"measurement": "IC50", "setting": "[4]", "result": 945000, "unit": "pM"},
      {"measurement": "IC50", "setting": "[10]", "result": 80, "unit": "pM"},
      {"measurement": "R0/RG ratio", "setting": "[11]", "result": 11800},
      {"measurement": "IC50", "setting": "[12]", "result": 945000, "unit": "pM"},
      {"measurement": "IC50", "setting": "[6]", "result": 80, "unit": "pM"},
      {"measurement": "IC50", "setting": "[7]", "result": 76300, "unit": "pM"},
      {"measurement": "IC50", "setting": "[8]", "result": 210, "unit": "pM"},
      {"measurement": "IC50", "setting": "[9]", "result": 945000, "unit": "pM"}
    ]},
    {"binder": "B3", "values": [
      {"measurement": "binding result", "setting": "[1]", "result": "binds"}
    ]},
    {"binder": "AVSEIQLLHDKGKSIQDLRRRFFLHHLIAEIHTAEY-NH2", "note": "[[Ile^5,Tyr^36]hPTHrP(1-36)NH2]", "values": [
      {"measurement": "t1/2 of the FRET response", "setting": "PTHR-CFPIC3/YFPCT", "result": "0.5 to 0.7", "unit": "s"}
    ]},
    {"binder": "AVSEIQLLHDKGKSIQDLRRRFFLHHLIAEIHTAEY-NH2 (also: 125I label, site not given here, Radioligand)", "note": "[^125I-[Ile^5,Tyr^36]PTHrP(1-36)NH2]", "values": [
      {"measurement": "binding result", "setting": "[1]", "result": "binds"}
    ]},
    {"binder": "SVSEIQLMHNLGKHLNSMERVEWLRKKLQDVHNF", "note": "[hPTH(1-34)]", "values": [
      {"measurement": "t1/2 of the reduction in FRET signal", "setting": "PTHR-CFPIC3/YFPCT", "result": 0.7, "unit": "s"}
    ]}
  ]
}
